In publication PMC11700292, “Specific inhibition of fibroblast growth factor receptor 1 signaling by a DNA aptamer”:

T1: FGFR4 extracellular domain-Fc (human, UniProt P22455 22-369)
T1 sequence: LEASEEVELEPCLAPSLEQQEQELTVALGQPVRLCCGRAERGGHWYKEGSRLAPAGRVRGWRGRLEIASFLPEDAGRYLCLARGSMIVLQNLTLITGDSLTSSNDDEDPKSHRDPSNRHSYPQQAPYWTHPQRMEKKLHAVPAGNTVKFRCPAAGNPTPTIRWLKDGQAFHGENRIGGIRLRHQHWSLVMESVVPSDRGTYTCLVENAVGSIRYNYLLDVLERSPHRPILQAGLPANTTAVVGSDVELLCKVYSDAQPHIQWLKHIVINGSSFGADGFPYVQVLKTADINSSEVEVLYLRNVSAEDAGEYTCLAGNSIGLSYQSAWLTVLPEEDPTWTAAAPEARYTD


Tests used:
[1] = target: FGFR1b extracellular domain-Fc (human) (UniProt P11362); experiment: BLI; conditions: BLI (Octet K2, protein A sensor, FGFR-Fc 5 ug/mL), VZ23 31.25-500 nM in PBS (8.1 mM Na2HPO4, 1.5 mM NaH2PO4, 137 mM NaCl, 2.7 mM KCl as given for NMR) with or …
[2] = target: FGFR3c extracellular domain-Fc (human, UniProt P22607 23-375); experiment: BLI; BLI (Octet K2, protein A sensor, FGFR-Fc 5 ug/mL), VZ23 31.25-500 nM in PBS (8.1 mM Na2HPO4, 1.5 mM NaH2PO4, 137 mM NaCl, 2.7 mM KCl as given for NMR) with or without 2 mM MgCl2; pH 7.3 (stated for CD); temperature not stated; conditions: protein: recombinant; tags: IgG1 Fc fusion; antiparallel G-quadruplex-like fold
[3] = target: FGFR2b extracellular domain-Fc (human, UniProt P21802-3 22-378); experiment: as above; conditions: protein: recombinant; tags: IgG1 Fc fusion; antiparallel G-quadruplex-like fold
[4] = target: FGFR2c extracellular domain-Fc (human, UniProt P21802 22-377); experiment: as above; conditions: protein: recombinant; tags: IgG1 Fc fusion; antiparallel G-quadruplex-like fold
[5] = target: T1, FGFR4 extracellular domain-Fc; experiment: as above; conditions: protein: recombinant; tags: IgG1 Fc fusion; antiparallel G-quadruplex-like fold
[6] = target: FGFR3b extracellular domain-Fc (human, UniProt P22607-2 23-377); experiment: as above; conditions: protein: recombinant; tags: IgG1 Fc fusion; antiparallel G-quadruplex-like fold
[7] = target: T2, FGFR1c extracellular domain-Fc (human, UniProt P11362-1 22-376); experiment: BLI; 2 mM Mg2+; BLI (Octet K2, protein A sensor, FGFR-Fc 5 ug/mL), VZ23 31.25-500 nM in PBS (8.1 mM Na2HPO4, 1.5 mM NaH2PO4, 137 mM NaCl, 2.7 mM KCl as given for NMR) with or without 2 mM MgCl2; pH 7.3 (stated for CD); temperature not stated; conditions: protein: recombinant; tags: IgG1 Fc fusion; antiparallel G-quadruplex-like fold
[8] = target: T2, FGFR1c extracellular domain-Fc; experiment: BLI; PBS, no Mg2+; BLI (Octet K2, protein A sensor, FGFR-Fc 5 ug/mL), VZ23 31.25-500 nM in PBS (8.1 mM Na2HPO4, 1.5 mM NaH2PO4, 137 mM NaCl, 2.7 mM KCl as given for NMR) with or without 2 mM MgCl2; pH 7.3 (stated for CD); temperature not stated; conditions: protein: recombinant; tags: IgG1 Fc fusion; antiparallel G-quadruplex-like fold
[9] = target: FGFR1c extracellular domain-Fc;FGF1 (human;human, UniProt P11362-1;P05230 22-376;16-155, |); experiment: BLI; preformed FGF1:FGFR1c complex; 250 nM each; BLI (Octet K2, protein A sensor, FGFR-Fc 5 ug/mL), VZ23 31.25-500 nM in PBS (8.1 mM Na2HPO4, 1.5 mM NaH2PO4, 137 mM NaCl, 2.7 mM KCl as given for NMR) with or without 2 mM MgCl2; pH 7.3 (stated for CD); temperature not stated; conditions: protein: recombinant;commercial; tags: IgG1 Fc fusion;; antiparallel G-quadruplex-like fold
Chain of FGFR1c extracellular domain-Fc;FGF1 (P11362 22-376, chain 1 of 2): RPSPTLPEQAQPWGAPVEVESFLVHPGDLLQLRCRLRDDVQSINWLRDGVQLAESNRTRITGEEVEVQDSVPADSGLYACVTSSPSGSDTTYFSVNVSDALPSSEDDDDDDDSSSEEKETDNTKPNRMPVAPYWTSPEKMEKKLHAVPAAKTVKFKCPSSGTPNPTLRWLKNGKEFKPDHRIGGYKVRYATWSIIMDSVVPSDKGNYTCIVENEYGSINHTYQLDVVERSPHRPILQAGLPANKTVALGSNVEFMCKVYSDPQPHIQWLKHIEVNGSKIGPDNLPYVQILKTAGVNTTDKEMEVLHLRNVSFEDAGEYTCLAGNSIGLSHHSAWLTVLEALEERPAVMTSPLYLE
Chain of FGFR1c extracellular domain-Fc;FGF1 (P05230 16-155, chain 2 of 2): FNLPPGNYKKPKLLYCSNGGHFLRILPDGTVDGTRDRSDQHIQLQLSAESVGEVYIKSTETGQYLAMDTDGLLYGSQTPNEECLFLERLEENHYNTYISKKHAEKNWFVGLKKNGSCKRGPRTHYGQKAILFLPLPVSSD

T2 sequence (P11362 22-376): as the sequence (P11362 22-376, chain 1 of 2) above
Chain of FGFR1b extracellular domain-Fc (human) (P11362 whole entry, the tested form may be a part): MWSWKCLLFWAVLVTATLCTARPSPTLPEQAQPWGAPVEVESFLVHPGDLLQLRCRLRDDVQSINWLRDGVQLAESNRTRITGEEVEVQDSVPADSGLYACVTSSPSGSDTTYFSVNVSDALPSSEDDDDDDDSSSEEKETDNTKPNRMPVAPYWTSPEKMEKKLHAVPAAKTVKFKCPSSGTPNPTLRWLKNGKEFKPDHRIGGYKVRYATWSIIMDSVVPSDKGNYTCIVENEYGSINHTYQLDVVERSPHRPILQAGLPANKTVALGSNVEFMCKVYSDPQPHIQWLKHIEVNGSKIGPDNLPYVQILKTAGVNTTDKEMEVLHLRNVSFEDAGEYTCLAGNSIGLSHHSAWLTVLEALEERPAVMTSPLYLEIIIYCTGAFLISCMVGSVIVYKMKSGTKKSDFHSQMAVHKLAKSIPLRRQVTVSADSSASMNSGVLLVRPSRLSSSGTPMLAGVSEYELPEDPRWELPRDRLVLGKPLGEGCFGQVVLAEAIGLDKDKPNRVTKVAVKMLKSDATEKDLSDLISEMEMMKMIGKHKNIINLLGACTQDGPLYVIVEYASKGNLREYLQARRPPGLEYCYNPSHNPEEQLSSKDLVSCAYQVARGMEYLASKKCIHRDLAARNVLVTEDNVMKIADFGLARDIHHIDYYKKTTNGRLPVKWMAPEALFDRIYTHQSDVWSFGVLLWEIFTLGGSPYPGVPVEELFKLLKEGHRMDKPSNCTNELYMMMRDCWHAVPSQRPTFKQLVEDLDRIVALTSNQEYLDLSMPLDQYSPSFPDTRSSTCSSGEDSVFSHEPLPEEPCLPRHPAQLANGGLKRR
Chain of FGFR2c extracellular domain-Fc (P21802 22-377): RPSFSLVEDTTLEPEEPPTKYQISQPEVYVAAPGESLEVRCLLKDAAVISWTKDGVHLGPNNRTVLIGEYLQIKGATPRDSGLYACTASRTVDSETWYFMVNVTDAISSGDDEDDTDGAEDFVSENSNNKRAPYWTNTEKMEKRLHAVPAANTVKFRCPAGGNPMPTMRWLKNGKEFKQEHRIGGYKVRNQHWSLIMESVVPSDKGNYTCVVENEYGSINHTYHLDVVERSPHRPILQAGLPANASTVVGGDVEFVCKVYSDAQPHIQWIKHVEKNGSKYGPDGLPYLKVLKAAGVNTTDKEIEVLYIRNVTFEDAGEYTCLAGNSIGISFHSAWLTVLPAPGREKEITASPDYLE
Chain of FGFR3c extracellular domain-Fc (P22607 23-375): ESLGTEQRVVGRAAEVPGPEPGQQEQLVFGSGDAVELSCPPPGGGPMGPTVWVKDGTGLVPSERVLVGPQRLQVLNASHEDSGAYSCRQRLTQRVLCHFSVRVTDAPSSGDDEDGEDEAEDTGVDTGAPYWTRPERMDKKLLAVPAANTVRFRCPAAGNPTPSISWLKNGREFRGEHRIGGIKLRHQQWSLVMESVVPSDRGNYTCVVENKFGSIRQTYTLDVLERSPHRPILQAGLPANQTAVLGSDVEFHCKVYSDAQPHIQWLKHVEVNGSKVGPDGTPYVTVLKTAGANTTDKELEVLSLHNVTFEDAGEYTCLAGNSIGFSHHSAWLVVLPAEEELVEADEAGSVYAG
Chain of FGFR2b extracellular domain-Fc (P21802 other isoform, or with tags, fused parts or gaps): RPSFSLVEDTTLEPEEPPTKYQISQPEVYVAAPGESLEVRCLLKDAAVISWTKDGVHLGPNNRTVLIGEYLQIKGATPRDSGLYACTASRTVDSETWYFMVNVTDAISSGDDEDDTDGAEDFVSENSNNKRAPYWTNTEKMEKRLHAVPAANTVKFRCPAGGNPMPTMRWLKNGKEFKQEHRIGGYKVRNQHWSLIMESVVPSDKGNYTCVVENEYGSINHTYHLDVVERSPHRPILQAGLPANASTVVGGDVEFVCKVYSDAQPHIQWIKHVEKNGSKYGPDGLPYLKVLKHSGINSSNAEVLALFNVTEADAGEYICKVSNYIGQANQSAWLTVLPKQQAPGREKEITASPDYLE
Chain of FGFR3b extracellular domain-Fc (P22607 other isoform, or with tags, fused parts or gaps): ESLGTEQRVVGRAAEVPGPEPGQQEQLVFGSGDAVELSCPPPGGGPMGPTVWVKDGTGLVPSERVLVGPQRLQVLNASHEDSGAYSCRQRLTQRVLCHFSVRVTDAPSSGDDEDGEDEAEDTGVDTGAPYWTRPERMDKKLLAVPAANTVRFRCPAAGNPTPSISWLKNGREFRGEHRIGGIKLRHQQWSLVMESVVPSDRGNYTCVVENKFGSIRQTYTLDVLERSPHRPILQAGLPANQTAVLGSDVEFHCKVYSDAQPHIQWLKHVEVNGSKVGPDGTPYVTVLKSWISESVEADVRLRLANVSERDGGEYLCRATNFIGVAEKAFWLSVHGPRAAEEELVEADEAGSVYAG

Molecule | Kd ([1]; 2 mM Mg2+) | Kd ([1]; PBS, no Mg2+) | binding result [2] | binding result [3] | binding result [4] | binding result [5] | binding result [6] | Kd [7] | Kd [8] | binding result [9]
GGGATACAGGGCTTTGTCTATGGTGTGGATGGCGGATACC [VZ23] | 0.0298 µM | 0.0546 µM | – | – | – | – | – | – | – | –
GGGATACAGGGCTTTGTCTATGGTGTGGATGGCGGATACC (structured_DNA) [VZ23] | – | – | no binding | no binding | no binding | no binding | no binding | 0.0654 ± 0.0055 µM | 0.162 ± 0.0487 µM | binds
